Laboratory results reported in doi:10.1101/529222 (bioRxiv, 2019).

Target: GST-EVH1 domain of VASP (UniProt P70460 1-113)
Experiment: pull-down

Chain of GST-EVH1 domain of VASP (P70460 1-113): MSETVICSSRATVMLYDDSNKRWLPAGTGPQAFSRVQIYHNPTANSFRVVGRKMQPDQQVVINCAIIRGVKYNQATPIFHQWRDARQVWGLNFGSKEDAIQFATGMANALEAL

fold change of TRIM9 precipitated, Trim67-/- lysate against wild-type lysate: ~2 fold
B1: endogenous TRIM9 (natural protein, mouse (endogenous in E15.5 cortex), UniProt Q8C7M3 1-817, looked up)
chain: MEEMEEELKCPVCGSFYREPIILPCSHNLCQACARNILVQTPESESPQSRRASGSGVSDYDYLDLDKMSLYSEADSGYGSYGGFASAPTTPCQKSPNGVRVFPPAMPPPPTHLSPALAPVPRNSCITCPQCHRSLILDDRGLRGFPKNRVLEGVIDRYQQSKAAALKCQLCEKAPKEATVMCEQCDVFYCDPCRLRCHPPRGPLAKHRLVPPAQGRVSRRLSPRKVSTCTDHELENHSMYCVQCKMPVCYQCLEEGKHSSHEVKALGAMWKLHKSQLSQALNGLSDRAKEAKEFLVQLRTMVQQIQENSVEFEACLVAQCDALIDALNRRKAQLLARVNKEHEHKLKVVRDQISHCTVKLRQTTGLMEYCLEVIKENDPSGFLQISDALIRRVHLTEDQWGKGTLTPRMTTDFDLSLDNSPLLQSIHQLDFVQVKASSPVPATPILQLEECCTHNNSATLSWKQPPLSTVAADGYILELDDGSGGQFREVYVGKETMCTVDGLHFNSTYNARVKAFNKTGVSPYSKTLVLQTSEAAGAHETKPMKDTDSEEQTLPFPVPSERLPLRRMSPFSSTLNLQPSFPGRSYFDFRSSPHQLSLHSSLQSLNAPGCNFETQSASYSQLVDIKKLLAVAWFAFDPGSAHSDIIFSNDNLTVTCSSYDDRVVLGKTGFSKGVHYWELTIDRYDNHPDPAFGVARIDVMKDMMLGKDDKAWAMYVDNNRSWFMHNNSHTNRTEGGITKGATIGVLLDLNRKTLTFFVNNEQQGPIAFENVEGLFFPAVSLNRNVQVSLWAPGLRACSGCYFKVCPGAVKSPQAPAP
